What was measured:
[1] = biological target: T1, Cy5-labeled proliferating cell nuclear antigen (PCNA) (human, UniProt P12004 1-261, Cy5 maleimide on cysteine(s), positions not stated); assay: single-molecule two-colour fluorescence imaging (Cy3-Cy5 co-localisation, Cy3 photobleaching steps); Cy5-PCNA loaded by RFC on bi-biotinylated lambda DNA on the DNA skybridge; 1 μM PAF15-Cy3 in reaction buffer incubated 10 min, unbound washed out; images 10-15 min after the start of washing; 150 mM potassium glutamate; room temperature (approximately 22°C); details: both partners purified
T1 sequence (P12004 whole entry): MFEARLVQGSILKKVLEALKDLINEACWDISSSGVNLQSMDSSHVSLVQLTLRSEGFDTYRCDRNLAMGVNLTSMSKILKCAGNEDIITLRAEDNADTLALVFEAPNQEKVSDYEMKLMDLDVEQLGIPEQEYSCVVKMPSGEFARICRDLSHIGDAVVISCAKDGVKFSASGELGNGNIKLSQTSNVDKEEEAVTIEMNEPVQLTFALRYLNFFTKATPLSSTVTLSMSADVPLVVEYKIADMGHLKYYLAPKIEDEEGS

[2] = biological target: T1, Cy5-labeled proliferating cell nuclear …; assay: single-molecule two-colour fluorescence imaging (Cy3-Cy5 co-localisation, FRET, Cy3 photobleaching steps); Cy5-PCNA loaded by RFC on bi-biotinylated lambda DNA on the DNA skybridge; 1 μM PAF15-Cy3 in reaction buffer incubated 10 min, unbound washed out; images 10-15 min after the start of washing; 100 mM potassium glutamate; room temperature (approximately 22°C); details: both partners purified

stoichiometry N [1]: 1 PAF15 per PCNA ring | stoichiometry N [2]: 2 PAF15 per PCNA ring
B1: Cy3-labeled PAF15 (Cys54Ser variant, Cy3 at Cys99) (natural protein, human, UniProt Q15004 2-111, looked up)
chain: VRTKADSVPGTYRKVVAARAPRKVLGSSTSATNSTSVSSRKAENKYAGGNPVSVRPTPKWQKGIGEFFRLSPKDSEKENQIPEEAGSSGLGKAKRKACPLQPDHTNDEKE
modifications: Cy3 on Cys99 (maleimide-thiol reaction)

— doi:10.1101/2025.11.15.688598 (bioRxiv, 2025)
